Assay [1] has as its target variant D (trypsin mutant of SEQ ID NO:5) (human). The experiment in a line: cell-based or functional assay. As to conditions: scale: % of the serum concentration of anti-plasmin.
In assay [2] the target is variant E (trypsin mutant of SEQ ID NO:5) (human). In words: cell-based or functional assay. As to conditions: scale: % of the serum concentration of anti-plasmin.
Chain of variant E (trypsin mutant of SEQ ID NO:5) (human) (chain, as listed by the source mutant): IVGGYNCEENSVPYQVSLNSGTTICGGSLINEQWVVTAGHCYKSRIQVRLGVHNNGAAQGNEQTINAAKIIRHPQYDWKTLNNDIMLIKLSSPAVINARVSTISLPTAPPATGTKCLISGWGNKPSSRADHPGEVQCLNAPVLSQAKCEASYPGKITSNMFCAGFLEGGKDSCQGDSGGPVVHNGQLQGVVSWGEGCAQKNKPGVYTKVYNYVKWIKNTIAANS

Chain of variant D (trypsin mutant of SEQ ID NO:5) (human) (chain, as listed by the source mutant limits assumed): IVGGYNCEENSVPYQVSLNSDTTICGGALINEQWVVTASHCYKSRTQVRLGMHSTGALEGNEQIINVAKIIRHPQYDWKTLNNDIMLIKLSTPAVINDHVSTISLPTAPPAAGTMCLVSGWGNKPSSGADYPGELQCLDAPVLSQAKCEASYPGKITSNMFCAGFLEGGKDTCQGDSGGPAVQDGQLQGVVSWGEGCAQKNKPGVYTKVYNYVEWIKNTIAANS

For “antiplasmin (from UniProt P08697 40-491)”, the IC50 (inhibitor concentration at 50% residual proteolytic activity; cleavage of fluorescently labelled TNF-alpha) in assay [1] was found to be 5; in assay [2] it was 40.

Values taken from patent US20060269538A1.
